Results reported in publication PMC3115021, “Dynamics of Cdk1 Substrate Specificity during the Cell Cycle” (Molecular Cell, 2011).

B1: PDS1: GST-tagged purified yeast protein tested as Cdk1 substrate (protein, UniProt P40316 1-373, looked up)
Securin: MMPANEDKENNIVYTGNESSGINFPQTPAHLLKRSHSNILKPPVRLDQLKRDANSNNGNTLKYIQGGKEVSPTKRLHTHAQQQGRLPLAAKDNNRSKSFIFPETSNQSKDADLPQLQNTLSIRKNDQLRKLSQISRSRSRANHNDLLSNSRKLQKYGSVLGYNALPKMKSLVLKDLADSGKNEESSDDDEGNEDSESKLGKKLQSALLKQDSSDGENELNGGLGLFNEQGGLQQLIKNSTKNEQKTKNDKSDKTDDYDIEIAPQRQEPLPYVPEGYSPFQQDDIEKLKTFNSPYKLDLEDEDDTPDKVDLLPLEQIDEEGEKDETECITRNQEEGAALPLLSKNFKEVAAVPTMELVYSEEGLDPEELEDLVT
modifications: GST tag
notes: GST-tagged purified yeast protein tested as Cdk1 substrate
B2: ORC2: purified yeast protein tested as Cdk1 substrate (protein, UniProt P32833 1-620, looked up)
Origin recognition complex …: MLNGEDFVEHNDILSSPAKSRNVTPKRVDPHGERQLRRIHSSKKNLLERISLVGNERKNTSPDPALKPKTPSKAPRKRGRPRKIQEELTDRIKKDEKDTISSKKKRKLDKDTSGNVNEESKTSNNKQVMEKTGIKEKREREKIQVATTTYEDNVTPQTDDNFVSNSPEPPEPATPSKKSLTTNHDFTSPLKQIIMNNLKEYKDSTSPGKLTLSRNFTPTPVPKNKKLYQTSETKSASSFLDTFEGYFDQRKIVRTNAKSRHTMSMAPDVTREEFSLVSNFFNENFQKRPRQKLFEIQKKMFPQYWFELTQGFSLLFYGVGSKRNFLEEFAIDYLSPKIAYSQLAYENELQQNKPVNSIPCLILNGYNPSCNYRDVFKEITDLLVPAELTRSETKYWGNHVILQIQKMIDFYKNQPLDIKLILVVHNLDGPSIRKNTFQTMLSFLSVIRQIAIVASTDHIYAPLLWDNMKAQNYNFVFHDISNFEPSTVESTFQDVMKMGKSDTSSGAEGAKYVLQSLTVNSKKMYKLLIETQMQNMGNLSANTGPKRGTQRTGVELKLFNHLCAADFIASNEIALRSMLREFIEHKMANITKNNSGMEIIWVPYTYAELEKLLKTVLNTL
B3: ORC6: purified yeast protein tested as Cdk1 substrate (protein, UniProt P38826 1-435, looked up)
Origin recognition complex …: MSMQQVQHCVAEVLRLDPQEKPDWSSGYLKKLTNATSILYNTSLNKVMLKQDEEVARCHICAYIASQKMNEKHMPDLCYYIDSIPLEPKKAKHLMNLFRQSLSNSSPMKQFAWTPSPKKNKRSPVKNGGRFTSSDPKELRNQLFGTPTKVRKSQNNDSFVIPELPPMQTNESPSITRRKLAFEEDEDEDEEEPGNDGLSLKSHSNKSITGTRNVDSDEYENHESDPTSEEEPLGVQESRSGRTKQNKAVGKPQSELKTAKALRKRGRIPNSLLVKKYCKMTTEEIIRLCNDFELPREVAYKIVDEYNINASRLVCPWQLVCGLVLNCTFIVFNERRRKDPRIDHFIVSKMCSLMLTSKVDDVIECVKLVKELIIGEKWFRDLQIRYDDFDGIRYDEIIFRKLGSMLQTTNILVTDDQYNIWKKRIEMDLALTEPL
B4: PLM2: purified yeast protein tested as Cdk1 substrate (protein, UniProt Q04383 1-521, looked up)
Protein PLM2: MSHLFPPSSPVAGKPLESPQKEPGKLANTSVLTLGRKRYNYELEEYPTPDPSSSIGRQSSPVKDITSRLNETKSALSSPSKQEKVLAGPIEIELDASDPSRLAIGRKKSVCNIILPCRKNISRQHAFISYAADRNEIKLECNGTNGLSVHLPYSMQLHLVKPFPTRNFYKLVAEEPLTSQNTKQSHGKTLQKNQNFISFVLAKGETVTFPYIQGSFINFTGVTVCLSLKKVAPYPGDGNNNFDEENSTETEDELCLLTTTSDDFSWQKETPSMKFVPVEHSPRTEQISKPLLIASPALVKNSPISYRTTPQTSFVINQPSTPKKLKRKSISLKNNTIQETPLPKDKIIGTLSASTRSGGINEEESFAAVAKKTKELSSTTAIVSPAQKRLKTSLNIIPEISRSLSERGIRFDDLVHVLCNHLAFSNLQQTPLSQLQNINSNTSQLSKDELKKVLETISCIGIIVREGKDASGKPLEDEYYYDVENDDSDERKILYNSLKGRSRLRSCRKKHKQYFWKRPTK

What follows are molecules tested against T1, Cln2-Cdk1 (Saccharomyces cerevisiae, UniProt P00546+P20438) (assay: Quantitative phosphorylation assay of T33-Sic1ΔC constructs and recombinant substrates). Conditions: Table S2; purified protein substrate; relative values, not divided by [S].
T1 construct: We purified the four cyclin-Cdk1 complexes from yeast; made in house; host or cells: S. cerevisiae strain DMY305 (galactose-induced); Cks1 from bacteria
T1 sequence (P00546 2-298 limits assumed): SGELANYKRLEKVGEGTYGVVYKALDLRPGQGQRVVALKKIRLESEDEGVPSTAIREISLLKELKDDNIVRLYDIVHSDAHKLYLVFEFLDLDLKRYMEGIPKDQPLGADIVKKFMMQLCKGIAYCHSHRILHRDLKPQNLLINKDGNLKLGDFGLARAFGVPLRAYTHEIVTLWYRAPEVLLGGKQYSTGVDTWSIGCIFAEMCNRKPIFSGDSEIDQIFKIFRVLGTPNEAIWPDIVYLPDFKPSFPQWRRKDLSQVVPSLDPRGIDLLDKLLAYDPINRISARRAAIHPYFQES
T1 sequence (P20438 whole entry partner): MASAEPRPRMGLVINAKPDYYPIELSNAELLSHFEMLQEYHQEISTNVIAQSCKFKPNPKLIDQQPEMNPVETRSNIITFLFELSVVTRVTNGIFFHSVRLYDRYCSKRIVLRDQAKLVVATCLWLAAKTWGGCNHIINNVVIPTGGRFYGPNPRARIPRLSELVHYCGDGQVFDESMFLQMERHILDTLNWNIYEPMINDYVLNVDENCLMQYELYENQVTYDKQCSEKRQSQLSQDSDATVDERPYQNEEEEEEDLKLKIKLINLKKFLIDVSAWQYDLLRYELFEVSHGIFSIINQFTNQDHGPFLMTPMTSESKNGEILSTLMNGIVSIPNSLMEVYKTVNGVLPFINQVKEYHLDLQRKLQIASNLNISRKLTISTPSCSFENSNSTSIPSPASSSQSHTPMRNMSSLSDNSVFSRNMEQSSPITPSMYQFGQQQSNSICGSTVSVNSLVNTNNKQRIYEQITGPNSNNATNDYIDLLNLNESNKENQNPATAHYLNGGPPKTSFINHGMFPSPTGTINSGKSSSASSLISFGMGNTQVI
T1 sequence (P20486 whole entry partner): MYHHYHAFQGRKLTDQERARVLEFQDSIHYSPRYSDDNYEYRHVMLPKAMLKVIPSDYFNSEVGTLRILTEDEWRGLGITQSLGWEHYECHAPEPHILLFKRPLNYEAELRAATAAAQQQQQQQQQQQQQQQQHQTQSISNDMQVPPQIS
Format: biochemical
Description: (§1) For the quantitative phosphorylation assays of T33-Sic1ΔC constructs and recombinant substrates, substrate concentrations were kept in the range of 0.5–2 μM (in the linear [S] versus v0 range, several-fold below the estimated KM value), and initial velocity conditions were defined as an initial substrate turnover of up to 10% of the total turnover. For the steady-state peptide kinetics of the Histone peptide PKTPKKAKKL, a similar assay composition was used as for protein substrates, and phosphocellulose paper was used for the quantification of the phosphorylated substrate. […]
(§2) similar substrate specificity as the Cln2-Cdk1 version purified using a TAP-tag. N-terminally 6His-tagged recombinant T33-Sic1ΔC constructs and substrates were cloned into the pET28a vector and purified by standard cobalt affinity chromatography and elution with 200 mM imidazole. 6His-Fin1 was purified as described previously (Woodbury and Morgan, 2007). Substrates cloned into the pGEX-4T-1 were purified on glutathione agarose columns using 5 mM reduced glutathione for elution. Cks1 was purified as described previously (Reynard et al., 2000). The optimal working concentration for purified Cks1 was taken as 500 nM based on optimization performed for cyclin-Cdk1 preparations and T33-Sic1ΔC as a substrate.
(§3) For the quantitative phosphorylation assays of T33-Sic1ΔC constructs and recombinant substrates, substrate concentrations were kept in the range of 0.5-2 μM (in the linear [S] vs v0 range, several-fold below the estimated KM value), and the initial velocity conditions were defined as an initial substrate turnover ranging up to 10% of the total turnover. The latter was estimated by a long-term incubation with excess amounts of cyclin-Cdk1 and 32P-γ-ATP in the standard reaction mixture given below. About 1-10 nM of purified kinase complex was used, reaction aliquots were taken at two or more time points, and the reaction was stopped by SDS-PAGE sample buffer. The relative kcat/KM values for the substrates were calculated as the ratio of v0/[S], which was determined from at least two independent experiments. The basal composition of the assay mixture contained 50 mM Hepes, pH 7.4, 100 mM NaCl, 0.1% NP-40, 20 mM imidazole, 0.1 mg/ml 2HA peptide, 2% glycerol, 2 mM EGTA, 0.2 mg/ml BSA, […], and 500 μM ATP (with added 32P-γ-ATP (Perkin Elmer)).
(§4) About 1-10 nM of purified kinase complex was used, reaction aliquots were taken at two or more time points, and the reaction was stopped by SDS-PAGE sample buffer. For the steady-state peptide kinetics of the Histone peptide PKTPKKAKKL, a similar assay composition was used as for protein substrates and the standard phosphocellulose method was applied for the quantification of the phosphorylated substrate (Loog and Morgan, 2005). Synthetic peptides as competitor agents were used in 4 mM final concentrations. […]

Row | Molecule | kcat/KM, Cln2
1 | B1 | 0.249 relative units
2 | B2 | 0.073 relative units
3 | B3 | 0.002 relative units
4 | B4 | 0.428 relative units

What follows are molecules tested against T2, Clb2-Cdk1 (Saccharomyces cerevisiae, UniProt P00546+P24869) in the same assay as above. Conditions: Table S2; purified protein substrate; relative values, not divided by [S].
T2 construct: We purified the four cyclin-Cdk1 complexes from yeast; made in house; host or cells: S. cerevisiae strain DOM0077 (gal-CLB2-TAP, sic1 deleted); Cks1 from bacteria
T2 sequence (P00546 2-298 limits assumed): as the sequence (P00546 2-298 limits assumed) above
T2 sequence (P24869 2-491 partner limits assumed): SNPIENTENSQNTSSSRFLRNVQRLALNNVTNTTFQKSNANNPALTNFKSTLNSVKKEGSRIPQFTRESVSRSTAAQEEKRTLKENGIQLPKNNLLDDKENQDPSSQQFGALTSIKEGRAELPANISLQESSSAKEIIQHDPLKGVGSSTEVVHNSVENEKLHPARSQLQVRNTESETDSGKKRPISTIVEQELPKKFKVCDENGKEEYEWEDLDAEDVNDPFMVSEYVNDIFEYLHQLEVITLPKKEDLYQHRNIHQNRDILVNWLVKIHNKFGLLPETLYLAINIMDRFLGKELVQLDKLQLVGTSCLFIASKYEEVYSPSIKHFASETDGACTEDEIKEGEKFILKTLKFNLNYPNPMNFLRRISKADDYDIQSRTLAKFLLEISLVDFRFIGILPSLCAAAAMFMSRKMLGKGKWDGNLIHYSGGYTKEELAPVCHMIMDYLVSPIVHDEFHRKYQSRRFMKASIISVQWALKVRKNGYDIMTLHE
T2 sequence (P20486 whole entry partner): as the sequence (P20486 whole entry partner) above
Format: biochemical
Description: as §1, §2, §3, §4

Row | Molecule | kcat/KM, Clb2
5 | B1 | 0.049 relative units
6 | B2 | 0.018 relative units
7 | B3 | 0.009 relative units
8 | B4 | 9.072 relative units

Each molecule was assayed against T3, Clb5-Cdk1 (Saccharomyces cerevisiae, UniProt P00546+P30283) in the same assay as above. Conditions: Table S2; purified protein substrate; relative values, not divided by [S].
T3 construct: We purified the four cyclin-Cdk1 complexes from yeast; made in house; host or cells: S. cerevisiae strain DOM0076 (gal-CLB5-TAP, sic1 deleted); Cks1 from bacteria
T3 sequence (P00546 2-298 limits assumed): as the sequence (P00546 2-298 limits assumed) above
T3 sequence (P30283 whole entry partner): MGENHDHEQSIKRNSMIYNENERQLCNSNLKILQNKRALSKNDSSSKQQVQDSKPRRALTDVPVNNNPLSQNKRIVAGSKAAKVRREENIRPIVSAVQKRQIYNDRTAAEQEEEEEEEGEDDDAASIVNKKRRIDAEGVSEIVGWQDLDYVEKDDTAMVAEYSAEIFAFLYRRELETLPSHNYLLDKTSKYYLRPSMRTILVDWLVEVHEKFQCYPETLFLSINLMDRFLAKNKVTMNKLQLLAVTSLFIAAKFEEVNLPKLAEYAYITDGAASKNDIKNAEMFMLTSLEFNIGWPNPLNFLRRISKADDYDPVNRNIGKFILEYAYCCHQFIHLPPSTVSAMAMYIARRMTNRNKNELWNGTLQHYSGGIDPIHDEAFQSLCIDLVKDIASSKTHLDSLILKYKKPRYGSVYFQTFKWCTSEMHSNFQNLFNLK
T3 sequence (P20486 whole entry partner): as the sequence (P20486 whole entry partner) above
Format: biochemical
Description: as §1, §2, §3, §4

Row | Molecule | kcat/KM, Clb5
9 | B1 | 0.008 relative units
10 | B2 | 0.405 relative units
11 | B3 | 0.029 relative units
12 | B4 | 1.724 relative units

The molecules below were run against T4, Clb3-Cdk1 (Saccharomyces cerevisiae, UniProt P00546+P24870) in the same assay as above. Conditions: Table S2; purified protein substrate; relative values, not divided by [S].
T4 construct: We purified the four cyclin-Cdk1 complexes from yeast; made in house; host or cells: S. cerevisiae strain DOM0957 (gal-CLB3-TAP, sic1 deleted); Cks1 from bacteria
T4 sequence (P00546 2-298 limits assumed): as the sequence (P00546 2-298 limits assumed) above
T4 sequence (P24870 whole entry partner): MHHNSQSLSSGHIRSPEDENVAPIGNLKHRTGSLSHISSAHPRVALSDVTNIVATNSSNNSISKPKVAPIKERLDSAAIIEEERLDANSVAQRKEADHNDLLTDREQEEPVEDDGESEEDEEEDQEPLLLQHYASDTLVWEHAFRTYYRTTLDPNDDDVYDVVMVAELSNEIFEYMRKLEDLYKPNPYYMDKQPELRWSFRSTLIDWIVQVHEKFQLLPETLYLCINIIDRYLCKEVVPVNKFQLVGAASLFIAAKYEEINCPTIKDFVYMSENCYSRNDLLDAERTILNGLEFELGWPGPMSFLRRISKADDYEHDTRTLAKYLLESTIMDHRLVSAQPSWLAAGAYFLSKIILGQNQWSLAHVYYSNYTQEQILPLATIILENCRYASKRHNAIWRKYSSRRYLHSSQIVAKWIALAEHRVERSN
T4 sequence (P20486 whole entry partner): as the sequence (P20486 whole entry partner) above
Format: biochemical
Description: as §1, §2, §3, §4

Row | Molecule | kcat/KM, Clb3
13 | B1 | 0.015 relative units
14 | B2 | 0.132 relative units
15 | B3 | 0.018 relative units
16 | B4 | 9.051 relative units

What follows are molecules tested against T5, Clb3hpm-Cdk1 (Saccharomyces cerevisiae, UniProt P00546+P24870) in the same assay as above. Conditions: Table S2; purified protein substrate; relative values, not divided by [S].
T5 construct: made in house; host or cells: S. cerevisiae strain MK0168 (gal-CLB3hpm-TAP, sic1 deleted); Cks1 from bacteria
Format: biochemical
Description: (§5) For the quantitative phosphorylation assays of T33-Sic1ΔC constructs and recombinant substrates, substrate concentrations were kept in the range of 0.5–2 μM (in the linear [S] versus v0 range, several-fold below the estimated KM value), and initial velocity conditions were defined as an initial substrate turnover of up to 10% of the total turnover. For the steady-state peptide kinetics of the Histone peptide PKTPKKAKKL, a similar assay composition was used as for protein substrates, and phosphocellulose paper was used for the quantification of the phosphorylated substrate.
(§6) Supplemental Experimental Procedures
(§7) Plasmid constructs and yeast strains
(§8) For tandem affinity purification (TAP) of cyclin-Cdk1 complexes, the cyclin genes were cloned into the 2 micron vector pRSAB1234 containing a GAL1 promoter and the C-terminal TAP-tag. To purify different 6His-T33-Sic1ΔC forms for kinase assays, the C-terminally truncated fragment of Sic1 (with a stop codon inserted after amino acid 215) was cloned into the NheI/BamHI site of the bacterial expression vector pET28a (Invitrogen). Mutagenesis of cyclins or substrates was performed using single-stranded pRSAB1234 or pET28a vector constructs as templates. The triple mutants in the hydrophobic patch (hpm) of Clb5 and Clb2 were described previously (Loog and Morgan, 2005), and the hpm of Clb3 (Phe-201, Leu-205 and Trp-208 mutated to alanines) was designed according to sequence homology with other B-type cyclins. In T33-Sic1ΔC constructs, the other Cdk sites bearing the consensus motif S/T-P were mutated to Ala-Ala in order to prevent any possible (pseudo)substrate competition. The other Cdk substrates were cloned as full-length forms into bacterial expression vectors pET28a or pGEX-4T-1. Cdh1 was purified using the baculovirus system and was a kind gift from Monica Rodrigo-Brenni (UCSF). […]
The […]
(§9) pRSAB1234 analogously to the cyclin-Cdk1 complexes. For C-terminal tagging of cyclin genes in their chromosomal loci, the Pringle method was applied (Longtine et al., 1998). Lists of plasmid […]
(§10) The TAP method was applied for purification of cyclin-Cdk1 complexes and Swe1 as described previously for Clb5-TAP-Cdk1 and Clb2-TAP-Cdk1 (Puig et al., 2001; Ubersax et al., 2003). […]
as §2, with “tagged” for “similar substrate specificity as the Cln2-Cdk1 version purified using a TAP-tag. N-terminally 6His-tagged”
as §3
(§11) About 1-10 nM of purified kinase complex was used, reaction aliquots were taken at two or more […]

Row | Molecule | kcat/KM, Clb3hpm
17 | B1 | 0.005 relative units
18 | B2 | 0.028 relative units
19 | B3 | 0.002 relative units
20 | B4 | 1.144 relative units

These molecules were tested against T6, Clb5hpm-Cdk1 (Saccharomyces cerevisiae, UniProt P00546) in the same assay as above. Conditions: Table S2; purified protein substrate; relative values, not divided by [S].
T6 construct: made in house; host or cells: S. cerevisiae strain DOM0963 (gal-CLB5hpm-TAP, sic1 deleted); Cks1 from bacteria
T6 sequence (P00546 2-298 limits assumed): as the sequence (P00546 2-298 limits assumed) above
Format: biochemical
Description: as §5, §6, §7, §8
The […]
as §9, §10
as §2, with “tagged” for “similar substrate specificity as the Cln2-Cdk1 version purified using a TAP-tag. N-terminally 6His-tagged”
as §3, §11

Row | Molecule | kcat/KM, Clb5hpm
21 | B1 | 0.002 relative units
22 | B2 | 0.012 relative units
23 | B3 | 0.001 relative units
24 | B4 | 0.428 relative units

Each molecule was assayed against T7, Clb2hpm-Cdk1 (Saccharomyces cerevisiae, UniProt P00546) in the same assay as above. Conditions: Table S2; purified protein substrate; relative values, not divided by [S].
T7 construct: made in house; host or cells: S. cerevisiae strain DOM0964 (gal-CLB2hpm-TAP, sic1 deleted); Cks1 from bacteria
T7 sequence (P00546 2-298 limits assumed): as above
Format: biochemical
Description: as §5, §6, §7, §8
The […]
as §9, §10
as §2, with “tagged” for “similar substrate specificity as the Cln2-Cdk1 version purified using a TAP-tag. N-terminally 6His-tagged”
as §3, §11

Row | Molecule | kcat/KM, Clb2hpm
25 | B1 | 0.035 relative units
26 | B2 | 0.067 relative units
27 | B3 | 0.005 relative units
28 | B4 | 6.351 relative units
